The subject of the data set is Escherichia coli TOP10. The data set is described as follows: shrunken log2 fold change of peptide-encoding DNA abundance (4.5 h post-induction vs induction); higher = less antimicrobial activity (less host growth inhibition). The following applies: time post-induction: 4.5 h; library: site-saturation at positions 5, 18, 19, 20.
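Also: peptides expressed intracellularly from a pBAD plasmid library in pooled LB shake-flask culture, induced with 0.3% L-arabinose, DNA abundance read by NGS, three biological replicates, DESeq2 with apeglm shrinkage.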

For the sequence RRIRNRPPRLPRPRPRPSYHPRP, the “shrunken log2 fold change” value is -0.273.

Regarding RRIRERPPRLPRPRPRPWWSPRP, the “shrunken log2 fold change” value was -0.0183.

For RRIRGRPPRLPRPRPRPIPKPRP, the “shrunken log2 fold change” value was -0.117.

Regarding RRIRQRPPRLPRPRPRPNSDPRP, the “shrunken log2 fold change” value is -0.594.

As to RRIRFRPPRLPRPRPRPQMYPRP, the “shrunken log2 fold change” value was -0.725.

For RRIRWRPPRLPRPRPRPEKKPRP, the “shrunken log2 fold change” value is 0.0589.

As for RRIRNRPPRLPRPRPRPHHCPRP, the “shrunken log2 fold change” value is -0.0844.

Consider RRIRPRPPRLPRPRPRPPEVPRP, for which the “shrunken log2 fold change” value is -0.0265.

On to RRIRLRPPRLPRPRPRPDETPRP, for which the “shrunken log2 fold change” value is -0.0184.

For the sequence RRIRIRPPRLPRPRPRPKCLPRP, the “shrunken log2 fold change” value is -0.0748.

Consider RRIRDRPPRLPRPRPRPPELPRP, for which the “shrunken log2 fold change” value is 0.107.

In the case of RRIRDRPPRLPRPRPRPWGNPRP, the “shrunken log2 fold change” value was -0.0163.

Consider RRIRVRPPRLPRPRPRPVAMPRP, for which the “shrunken log2 fold change” value was found to be 0.0876.

RRIRDRPPRLPRPRPRPKKYPRP: the “shrunken log2 fold change” value is -0.239.

In the case of RRIRDRPPRLPRPRPRPVSLPRP, the “shrunken log2 fold change” value is -0.442.

Turning to RRIRYRPPRLPRPRPRPCSCPRP, the “shrunken log2 fold change” value is -0.155.

For the sequence RRIRYRPPRLPRPRPRPSEIPRP, the “shrunken log2 fold change” value was -0.271.

For the sequence RRIRVRPPRLPRPRPRPDGWPRP, the “shrunken log2 fold change” value came out at 0.223.

RRIRRRPPRLPRPRPRPHIHPRP: the “shrunken log2 fold change” value is -0.674.

With RRIRCRPPRLPRPRPRPILSPRP, the “shrunken log2 fold change” value was -0.362.

As for RRIRCRPPRLPRPRPRPTHMPRP, the “shrunken log2 fold change” value is -0.173.

As to RRIRIRPPRLPRPRPRPEKAPRP, the “shrunken log2 fold change” value was -0.0795.

In the case of RRIRERPPRLPRPRPRPKLEPRP, the “shrunken log2 fold change” value was -0.0117.

For RRIRKRPPRLPRPRPRPSMLPRP, the “shrunken log2 fold change” value was -0.0569.

For RRIRGRPPRLPRPRPRPIRTPRP, the “shrunken log2 fold change” value turned out to be 0.21.

Regarding RRIRWRPPRLPRPRPRPFSFPRP, the “shrunken log2 fold change” value was -0.067.

Regarding RRIRKRPPRLPRPRPRPACDPRP, the “shrunken log2 fold change” value came out at 0.861.

Take RRIRQRPPRLPRPRPRPAIHPRP: the “shrunken log2 fold change” value is 0.135.

Take RRIRPRPPRLPRPRPRPKNWPRP: the “shrunken log2 fold change” value is 0.261.

With RRIRKRPPRLPRPRPRPNSQPRP, the “shrunken log2 fold change” value is 0.27.

In the case of RRIRRRPPRLPRPRPRPCVVPRP, the “shrunken log2 fold change” value came out at 0.152.

For RRIRYRPPRLPRPRPRPLVQPRP, the “shrunken log2 fold change” value was -0.49.

As to RRIRQRPPRLPRPRPRPVAIPRP, the “shrunken log2 fold change” value was -0.367.

As to RRIRQRPPRLPRPRPRPQWMPRP, the “shrunken log2 fold change” value is -0.494.

In the case of RRIRDRPPRLPRPRPRPAHWPRP, the “shrunken log2 fold change” value came out at 0.404.

Regarding RRIRTRPPRLPRPRPRPWRVPRP, the “shrunken log2 fold change” value is -0.00468.

RRIRMRPPRLPRPRPRPGMLPRP: the “shrunken log2 fold change” value is -0.0146.

Consider RRIRIRPPRLPRPRPRPPYVPRP, for which the “shrunken log2 fold change” value is -0.121.

Consider RRIRERPPRLPRPRPRPLRPPRP, for which the “shrunken log2 fold change” value turned out to be 0.889.

RRIRQRPPRLPRPRPRPPYYPRP: the “shrunken log2 fold change” value was -0.829.

As to RRIRYRPPRLPRPRPRPEQRPRP, the “shrunken log2 fold change” value was -0.067.

Regarding RRIRRRPPRLPRPRPRPMEEPRP, the “shrunken log2 fold change” value came out at 0.0408.

Take RRIRFRPPRLPRPRPRPVHPPRP: the “shrunken log2 fold change” value stood at 0.037.

RRIRDRPPRLPRPRPRPTILPRP: the “shrunken log2 fold change” value came to 0.242.

As for RRIRARPPRLPRPRPRPLMNPRP, the “shrunken log2 fold change” value is -0.178.

Regarding RRIRDRPPRLPRPRPRPMRTPRP, the “shrunken log2 fold change” value is 0.519.

As to RRIRSRPPRLPRPRPRPWYDPRP, the “shrunken log2 fold change” value is -0.511.

RRIRDRPPRLPRPRPRPYRKPRP: the “shrunken log2 fold change” value was -0.0111.

Consider RRIRNRPPRLPRPRPRPVEKPRP, for which the “shrunken log2 fold change” value was 0.143.

For RRIRGRPPRLPRPRPRPMSKPRP, the “shrunken log2 fold change” value stood at 0.269.

As for RRIRFRPPRLPRPRPRPQYHPRP, the “shrunken log2 fold change” value is -1.15.

As for RRIRFRPPRLPRPRPRPRTDPRP, the “shrunken log2 fold change” value is -0.0313.

For RRIRRRPPRLPRPRPRPRHYPRP, the “shrunken log2 fold change” value came out at 0.279.

Consider RRIRVRPPRLPRPRPRPWQAPRP, for which the “shrunken log2 fold change” value was -0.0138.

Take RRIRKRPPRLPRPRPRPKDGPRP: the “shrunken log2 fold change” value was determined as 0.0893.

Consider RRIRCRPPRLPRPRPRPCYRPRP, for which the “shrunken log2 fold change” value was -0.256.

Regarding RRIRARPPRLPRPRPRPNVEPRP, the “shrunken log2 fold change” value was 0.327.

As for RRIRFRPPRLPRPRPRPCFNPRP, the “shrunken log2 fold change” value was -0.385.

Consider RRIRSRPPRLPRPRPRPWMLPRP, for which the “shrunken log2 fold change” value is -0.14.

On to RRIRRRPPRLPRPRPRPMVMPRP, for which the “shrunken log2 fold change” value is 0.158.

Regarding RRIRVRPPRLPRPRPRPIQVPRP, the “shrunken log2 fold change” value was found to be 0.0304.

On to RRIRGRPPRLPRPRPRPIHAPRP, for which the “shrunken log2 fold change” value came to 0.418.

In the case of RRIRHRPPRLPRPRPRPVNQPRP, the “shrunken log2 fold change” value was -0.0313.

Regarding RRIRNRPPRLPRPRPRPEKFPRP, the “shrunken log2 fold change” value is -0.165.

RRIRSRPPRLPRPRPRPFYWPRP: the “shrunken log2 fold change” value is -0.0331.

Consider RRIRPRPPRLPRPRPRPDVDPRP, for which the “shrunken log2 fold change” value is 0.108.

As to RRIRTRPPRLPRPRPRPGRQPRP, the “shrunken log2 fold change” value was determined as 0.0723.

Take RRIRIRPPRLPRPRPRPNLWPRP: the “shrunken log2 fold change” value was -0.132.

Turning to RRIRGRPPRLPRPRPRPEAIPRP, the “shrunken log2 fold change” value stood at 1.82.

Take RRIRTRPPRLPRPRPRPIQKPRP: the “shrunken log2 fold change” value is -0.00925.

Consider RRIRARPPRLPRPRPRPGGVPRP, for which the “shrunken log2 fold change” value stood at 0.626.

As to RRIRCRPPRLPRPRPRPKMLPRP, the “shrunken log2 fold change” value was -0.0357.

In the case of RRIRRRPPRLPRPRPRPFHPPRP, the “shrunken log2 fold change” value is 0.111.

For RRIRNRPPRLPRPRPRPGGAPRP, the “shrunken log2 fold change” value is 0.283.

RRIRNRPPRLPRPRPRPTMNPRP: the “shrunken log2 fold change” value is -0.134.

Turning to RRIRERPPRLPRPRPRPMYMPRP, the “shrunken log2 fold change” value is -0.0017.

On to RRIRIRPPRLPRPRPRPGIPPRP, for which the “shrunken log2 fold change” value is -0.225.

For RRIRMRPPRLPRPRPRPMHNPRP, the “shrunken log2 fold change” value worked out at 0.0989.

On to RRIRLRPPRLPRPRPRPCRWPRP, for which the “shrunken log2 fold change” value is 0.252.

For RRIRDRPPRLPRPRPRPSWQPRP, the “shrunken log2 fold change” value amounted to 0.321.

As for RRIRPRPPRLPRPRPRPFPRPRP, the “shrunken log2 fold change” value turned out to be 0.0474.

Turning to RRIRNRPPRLPRPRPRPHKQPRP, the “shrunken log2 fold change” value is -0.359.

In the case of RRIRNRPPRLPRPRPRPLEIPRP, the “shrunken log2 fold change” value amounted to 0.000705.

Consider RRIRQRPPRLPRPRPRPWTWPRP, for which the “shrunken log2 fold change” value was -0.0328.

For RRIRYRPPRLPRPRPRPPWTPRP, the “shrunken log2 fold change” value is -0.343.

Regarding RRIRERPPRLPRPRPRPYPDPRP, the “shrunken log2 fold change” value is -1.61.

In the case of RRIRVRPPRLPRPRPRPAAPPRP, the “shrunken log2 fold change” value turned out to be 0.452.

Turning to RRIRKRPPRLPRPRPRPIVWPRP, the “shrunken log2 fold change” value turned out to be 0.527.

Turning to RRIRLRPPRLPRPRPRPMSHPRP, the “shrunken log2 fold change” value was 0.0207.

Turning to RRIRQRPPRLPRPRPRPESMPRP, the “shrunken log2 fold change” value stood at 0.00186.

RRIRSRPPRLPRPRPRPGFLPRP: the “shrunken log2 fold change” value is 0.078.

Turning to RRIRCRPPRLPRPRPRPYQQPRP, the “shrunken log2 fold change” value is -0.12.

As for RRIRWRPPRLPRPRPRPWDCPRP, the “shrunken log2 fold change” value was -0.0326.

As for RRIRPRPPRLPRPRPRPPVCPRP, the “shrunken log2 fold change” value turned out to be 0.409.

Consider RRIRIRPPRLPRPRPRPGDHPRP, for which the “shrunken log2 fold change” value was determined as 0.14.

On to RRIRIRPPRLPRPRPRPWLSPRP, for which the “shrunken log2 fold change” value is -0.238.

Turning to RRIRRRPPRLPRPRPRPWIQPRP, the “shrunken log2 fold change” value came to 0.0321.

Regarding RRIRMRPPRLPRPRPRPFVHPRP, the “shrunken log2 fold change” value is -0.178.

As for RRIRGRPPRLPRPRPRPHRNPRP, the “shrunken log2 fold change” value was -0.184.

As for RRIRARPPRLPRPRPRPKFIPRP, the “shrunken log2 fold change” value is -0.135.

As for RRIRTRPPRLPRPRPRPIMIPRP, the “shrunken log2 fold change” value was -0.163.

For RRIRFRPPRLPRPRPRPFDSPRP, the “shrunken log2 fold change” value was -0.22.

Regarding RRIRGRPPRLPRPRPRPIDDPRP, the “shrunken log2 fold change” value was determined as 0.329.

With RRIRLRPPRLPRPRPRPRAHPRP, the “shrunken log2 fold change” value stood at 0.244.

For the sequence RRIRCRPPRLPRPRPRPATSPRP, the “shrunken log2 fold change” value was found to be 0.0157.

Take RRIRGRPPRLPRPRPRPSSEPRP: the “shrunken log2 fold change” value worked out at 0.351.

In the case of RRIRWRPPRLPRPRPRPPIYPRP, the “shrunken log2 fold change” value was found to be 0.0337.

On to RRIRIRPPRLPRPRPRPEWYPRP, for which the “shrunken log2 fold change” value was -0.142.

With RRIRPRPPRLPRPRPRPTQVPRP, the “shrunken log2 fold change” value is 0.124.

As to RRIRSRPPRLPRPRPRPMMAPRP, the “shrunken log2 fold change” value was -0.199.

Regarding RRIRTRPPRLPRPRPRPYHKPRP, the “shrunken log2 fold change” value is -0.426.

For RRIRQRPPRLPRPRPRPVQEPRP, the “shrunken log2 fold change” value was 0.00554.

For the sequence RRIRMRPPRLPRPRPRPLDAPRP, the “shrunken log2 fold change” value turned out to be 1.74.

As for RRIRNRPPRLPRPRPRPCPLPRP, the “shrunken log2 fold change” value was found to be 0.011.

In the case of RRIRIRPPRLPRPRPRPRRCPRP, the “shrunken log2 fold change” value turned out to be 0.221.

In the case of RRIRRRPPRLPRPRPRPHDFPRP, the “shrunken log2 fold change” value was 0.103.

As for RRIRYRPPRLPRPRPRPAFNPRP, the “shrunken log2 fold change” value was -0.431.

Take RRIRMRPPRLPRPRPRPTNEPRP: the “shrunken log2 fold change” value was determined as 0.282.

RRIRERPPRLPRPRPRPHRNPRP: the “shrunken log2 fold change” value was -0.869.

Regarding RRIRQRPPRLPRPRPRPPFMPRP, the “shrunken log2 fold change” value was found to be 0.213.

With RRIRCRPPRLPRPRPRPLTAPRP, the “shrunken log2 fold change” value is -0.119.

On to RRIRQRPPRLPRPRPRPSHTPRP, for which the “shrunken log2 fold change” value was -0.195.

Take RRIRPRPPRLPRPRPRPKDNPRP: the “shrunken log2 fold change” value is -0.248.

Regarding RRIRVRPPRLPRPRPRPRLTPRP, the “shrunken log2 fold change” value stood at 0.169.

Turning to RRIRCRPPRLPRPRPRPLPVPRP, the “shrunken log2 fold change” value is -0.105.
